Tests used:
HLA-A*02:01 [1] = assay: IEDB peptide-MHC binding, purified MHC/competitive/fluorescence; filed as Kd, often an IC50 or EC50 that approximates it; ≥ and ≤ were set here for values at or beyond the usual limits of such assays
HLA-B*39:01 = assay: as above
HLA-B*35:01 = assay: as above; details: source organism: Yersinia pestis Nepal516
HLA-B*08:01 [2] = assay: as above; details: source organism: Yersinia pestis Nepal516
HLA-C*03:03 = assay: IEDB peptide-MHC binding, purified MHC/direct/fluorescence; filed as Kd, often an IC50 or EC50 that approximates it; ≥ and ≤ were set here for values at or beyond the usual limits of such assays; details: source organism: Yersinia pestis Nepal516
HLA-C*12:03 = assay: as above; details: source organism: Yersinia pestis Nepal516
HLA-A*02:01 [3] = assay: as above
HLA-A*31:01 = assay: as above
HLA-B*40:01 = assay: as above
HLA-B*07:02 = assay: as above
HLA-B*15:01 [4] = assay: as above
HLA-B*08:01 [5] = assay: as above; details: source organism: Influenza A virus (A/Ck/HK/2133.1/2003(H5N1))
HLA-B*44:02 = assay: as above
HLA-A*11:01 = assay: as above
HLA-B*08:02 = assay: as above
HLA-C*05:01 = assay: as above; details: source organism: Influenza A virus H3N2
HLA-B*58:01 = assay: as above
HLA-A*24:02 [6] = assay: as above
HLA-B*27:05 = assay: as above
HLA-A*26:01 [7] = assay: as above; details: source organism: Giardia lamblia ATCC 50803
HLA-A*03:01 [8] = assay: as above; details: source organism: Giardia lamblia ATCC 50803
HLA-A*01:01 = assay: as above; details: source organism: Giardia lamblia ATCC 50803
HLA-A*69:01 = assay: as above; details: source organism: Giardia lamblia ATCC 50803
HLA-B*46:01 [9] = assay: as above; details: source organism: Giardia lamblia ATCC 50803
HLA-A*02:01 [10] = assay: IEDB peptide-MHC binding, purified MHC/competitive/fluorescence; ≥ and ≤ were set here for values at or beyond the usual limits of such assays; details: source organism: Vaccinia virus
HLA-A*03:01 [11] = assay: as above; details: source organism: Vaccinia virus
HLA-B*15:01 [12] = assay: as above; details: source organism: Vaccinia virus
HLA-A*24:02 [13] = assay: as above; details: source organism: Vaccinia virus
HLA-B*15:03 = assay: IEDB peptide-MHC binding, purified MHC/competitive/radioactivity; filed as Kd, often an IC50 or EC50 that approximates it; ≥ and ≤ were set here for values at or beyond the usual limits of such assays; details: source organism: Vaccinia virus WR
HLA-A*26:01 [14] = assay: IEDB peptide-MHC binding, purified MHC/competitive/fluorescence; filed as Kd, often an IC50 or EC50 that approximates it; ≥ and ≤ were set here for values at or beyond the usual limits of such assays; details: source organism: Entamoeba histolytica HM-1:IMSS
HLA-B*57:01 = assay: as above; details: source organism: Entamoeba histolytica HM-1:IMSS
HLA-A*03:01 [15] = assay: as above; details: source organism: Entamoeba histolytica HM-1:IMSS
HLA-A*02:19 = assay: as above; details: source organism: Entamoeba histolytica HM-1:IMSS
HLA-A*29:02 = assay: as above; details: source organism: Entamoeba histolytica HM-1:IMSS
HLA-B*27:03 = assay: as above; details: source organism: Entamoeba histolytica HM-1:IMSS
HLA-B*51:01 = assay: as above; details: source organism: Entamoeba histolytica HM-1:IMSS
HLA-B*15:01 [16] = assay: as above; details: source organism: Entamoeba histolytica HM-1:IMSS
HLA-B*18:01 = assay: as above; details: source organism: Entamoeba histolytica HM-1:IMSS
HLA-B*46:01 [17] = assay: as above; details: source organism: Entamoeba histolytica HM-1:IMSS
HLA-B*15:17 = assay: as above; details: source organism: Entamoeba histolytica HM-1:IMSS
[18] = source organism: Yersinia pestis Nepal516
[19] = source organism: Influenza A virus (A/Ck/HK/2133.1/2003(H5N1))
[20] = source organism: Influenza A virus (A/Puerto Rico/8/34/Mount Sinai(H1N1))
[21] = source organism: Giardia lamblia ATCC 50803

Sequence: MLMAASRAL
- Kd (HLA-A*02:01 [1]; [18]): 0.0011 µM
- Kd (HLA-B*39:01; [18]): 0.0012 µM
- Kd (HLA-B*35:01): 0.0471 µM
- Kd (HLA-B*08:01 [2]): 0.0396 µM
- Kd (HLA-C*03:03): 0.002 µM
- Kd (HLA-C*12:03): 0.361 µM

Sequence: SADPLASLL
- Kd (HLA-B*39:01; source organism: Influenza A virus H3N2): 0.157 µM
- Kd (HLA-A*02:01 [3]; [19]): ≥ 20 µM
- Kd (HLA-A*31:01; [19]): ≥ 20 µM
- Kd (HLA-B*40:01; [20]): 3.25 µM
- Kd (HLA-B*07:02; [19]): ≥ 20 µM
- Kd (HLA-B*15:01 [4]; [19]): ≥ 20 µM
- Kd (HLA-B*08:01 [5]): ≥ 20 µM
- Kd (HLA-B*44:02; [19]): ≥ 20 µM
- Kd (HLA-A*11:01; [19]): ≥ 20 µM
- Kd (HLA-B*08:02; source organism: Influenza A virus(A/swine/Shandong/fNY/2003(H9N2))): ≥ 20 µM
- Kd (HLA-C*05:01): ≤ 0.001 µM
- Kd (HLA-B*58:01; [19]): ≥ 20 µM
- Kd (HLA-A*24:02 [6]; [19]): ≥ 20 µM
- Kd (HLA-B*27:05; [20]): 1.37 µM

Sequence: SDRLHHDPL
- Kd (HLA-A*26:01 [7]): ≥ 20 µM
- Kd (HLA-A*02:01 [3]; [21]): ≥ 20 µM
- Kd (HLA-A*31:01; [21]): ≥ 20 µM
- Kd (HLA-A*03:01 [8]): ≥ 20 µM
- Kd (HLA-B*40:01; [21]): 0.28 µM
- Kd (HLA-B*07:02; [21]): ≥ 20 µM
- Kd (HLA-B*15:01 [4]; [21]): ≥ 20 µM
- Kd (HLA-A*01:01): ≥ 20 µM
- Kd (HLA-B*44:02; [21]): ≥ 20 µM
- Kd (HLA-A*69:01): ≥ 20 µM
- Kd (HLA-A*11:01; [21]): ≥ 20 µM
- Kd (HLA-B*08:02; [21]): ≥ 20 µM
- Kd (HLA-B*58:01; [21]): ≥ 20 µM
- Kd (HLA-B*46:01 [9]): ≥ 20 µM
- Kd (HLA-A*24:02 [6]; [21]): ≥ 20 µM
- Kd (HLA-B*27:05; [21]): ≥ 20 µM

Sequence: SLYPNVCIF
- IC50 (HLA-A*02:01 [10]): 1.88 µM
- IC50 (HLA-A*03:01 [11]): ≥ 365 µM
- IC50 (HLA-B*15:01 [12]): 5.7 µM
- IC50 (HLA-A*24:02 [13]): 0.0384 µM
- Kd (HLA-B*15:03): 0.00494 µM

Sequence: YLHIHPFKI
- Kd (HLA-A*26:01 [14]): ≥ 20 µM
- Kd (HLA-A*02:01 [1]; source organism: Entamoeba histolytica HM-1:IMSS): 0.0061 µM
- Kd (HLA-B*57:01): ≥ 20 µM
- Kd (HLA-A*03:01 [15]): ≥ 20 µM
- Kd (HLA-A*02:19): 0.0678 µM
- Kd (HLA-A*29:02): ≥ 20 µM
- Kd (HLA-B*27:03): ≥ 20 µM
- Kd (HLA-B*51:01): ≥ 20 µM
- Kd (HLA-B*15:01 [16]): ≥ 20 µM
- Kd (HLA-B*18:01): ≥ 20 µM
- Kd (HLA-B*46:01 [17]): ≥ 20 µM
- Kd (HLA-B*15:17): ≥ 20 µM
